The assay has as its target S. mutans VicK (aa31-450), entire intracellular region (S. mutans). Nature of the assay: SEC-MALS; VicK at ~4 mg/ml resolved on a size exclusion column (Shodex KW-802.5) in 50 mM HEPES (pH 7.0), 200 mM Na2SO4 at 25°C; DAWN HELEOS II laser photometer; BSA as control.

For “S. mutans VicK (aa31-450), entire intracellular region (domain or fragment)”, the stoichiometry N (as a rule, the number of molecules, sites or subunits per partner or assembly) was determined as 2.

For the origin of these results see publication PMC3582566.
